The values that follow come from patent publication US7943356B2, “Alcohol dehydrogenase for the stereoselective production of hydroxy compounds” (Codexis, Inc., priority 2004, dated 2011).

Like-named read-outs stand apart in the source and are kept apart here.

One series deals with ADH T. Put plainly: Relative activities of purified ADH T in the reduction of different substrates. Format: biochemical, Thermoanaerobacter species.
A short description of series [1]: Activity of the isolated ADH T at different pH values. The class given is biochemical. Here is the method:
The activities were determined by photometric measurement of the decrease in the cofactor. […] The measurement batch for ADH-TE also contained 1 mM of MgCl2.
(§1) The decrease in NADPH was followed at 340 nm for one minute after addition of the enzyme. Sufficient enzyme was added for the activity to be between 0.5 and 1.5 U/ml and the measurement volume was 1 ml.
(§2) 1 U corresponds to the quantity of enzyme which converts 1 μmol of substrate per minute.

Series [2] can be described thus: Storage stability of the isolated ADH T (residual activity). The class given is physicochemical. The settings on record: for Activity Day 5 / Activity Day 10 / Activity Day 20 / Activity Day 40 / Activity Start: storage at 4° C. As to the method: In spite of its thermal stability, the isolated ADH T cannot be stored for long under standard conditions (50 mM Tris-Cl, pH 7.0). The half-life is only ca. 4 days. By addition of e.g. NaCl, the half-life can be increased to more than 40 days (Table 2).
(§3) The activities were determined by photometric measurement of the decrease in the cofactor. Measurement batch: 50 mM Tris-Cl, pH 7.0 with 10 mM substrate and 0.2 mM NADPH. The measurement batch for ADH-TE also contained 1 mM of MgCl2.
as §1, §2

Series [3] is described as follows: Activity with diketone 2,4-pentanedione (photometric NADPH decrease). The class given is biochemical. As to the method:
(§4) The comparison of the activity of the ADH T with that of the secondary alcohol dehydrogenase from Thermoanaerobacter ethanolicus 39E (U.S. Pat. No. 5,908,924) with regard to the conversion of diketones is interesting (Table 6).
as §3, §1, §2

The nature of series [4]: Activity with standard substrate acetone (photometric NADPH decrease). Format: biochemical. The settings on record: acetone (10 mM); ADH T 1.5 mg/ml, ADH-TE 2.45 mg/ml; ADH-TE batch also 1 mM MgCl2. Here is the method:
as §4, §3, §1, §2

Series [5] is described as follows: Activity with diketone 2,5-hexanedione (photometric NADPH decrease). Format: biochemical. As to the method: as §4, §3, §1, §2
A short description of series [6]: Thermal stability of ADH T. Format: physicochemical. The settings on record: after 12 hrs at 50° C. Here is the method: The thermal stability is also very good. The activity of the ADH T was still at 75% of the starting value even after 12 hrs at 50° C.
Series [7] in a line: Reduction of 2,5-hexanedione to the diol, conversion and ee/de. The settings on record: after 48 hrs. Format: biochemical. An excerpt:
The ee/de value of 100% signifies absolute enantiomeric and diastereomeric purity of the diols prepared. By means of the invention described here, the ADH T can for the first time be obtained in sufficient quantity to produce enantiomerically pure diols on the kilogram scale.

A short description of series [8]: Conversion of 2-pentanone with substrate-coupled cofactor regeneration (isopropanol). The settings on record: 200 mM 2-pentanone, 3 U/ml ADH T, 0.05 mM NADP. The class given is biochemical. The source says:
In fact, it can be shown that the enantioselectivity in the reduction of critical ketones such as 2-pentanone or 2-butanone by substrate-coupled cofactor regeneration with isopropanol is also far better than with the use of enzyme-coupled cofactor regeneration.
Also, the achievable enantiomeric purity of the product depends on the quantity of isopropanol used (Table 9).

Setting [9] is: substrate 10 mM, activity with acetone set at 100%, purified ADH T.
The mark [10] stands for this setting: substrate 10 mM, activity with acetone set at 100%, […].
Where [11] appears, read: relative to standard substrate acetone (10 mM).

On to `O=C1CCCCC1=O` [1,2-cyclohexanedione], for which the Relative activity in the series on ADH T (setting [9]) came to 5%.

On to `CC(=O)CC(C)=O` [2,4-pentanedione], for which the Relative activity in the series with ADH T (setting [9]) was 77%.

Turning to `CC(=O)CCC(C)=O` [2,5-hexanedione], the Relative activity in the series with ADH T (setting [9]) was found to be 74%.

With `CC(=O)c1ccccn1` [2-acetylpyridine], in the series on ADH T (setting [9]), the Relative activity was 36%.

Consider `CCC(C)=O` [2-butanone], for which the Relative activity in the series with ADH T (setting [10]) is given as 72%.

As for `CCCCC(C)=O` [2-hexanone], the Relative activity in the series with ADH T (setting [10]) is given as 30%.

As to `CCC(C)C=O` (stereo not shown) [2-methylbutyraldehyde], the Relative activity in the series with ADH T (setting [9]) is 52%.

Regarding `CCCCCCC(C)=O` [2-octanone], the Relative activity in the series with ADH T (setting [9]) stood at 9%.

Take `CCC(=O)C(=O)O` [2-oxobutyric acid]: the Relative activity with ADH T (setting [9]) was determined as 28%.

Regarding `CCCC(C)=O` [2-pentanone], the Relative activity in the series with ADH T (setting [9]) came to 31%.

With `C#CC(C)=O` [3-butyn-2-one], the Relative activity in the series with ADH T (setting [10]) is 76%.

Regarding `CCCCCC(=O)CC` [3-octanone], the Relative activity in the series with ADH T (setting [9]) came to 26%.

Turning to `CC(=O)CCCl` [4-chloro-2-butanone], the Relative activity in the series on ADH T (setting [10]) came to 66%.

For the molecule `CC(=O)CCO` [4-hydroxy-2-butanone], the Relative activity in the series with ADH T (setting [10]) is listed as 13%.

Consider `CC=O` [Acetaldehyde], for which, in the series on ADH T (setting [10]), the Relative activity came to 101%.

`CC(C)=O` [Acetone]: the Relative activity in the series with ADH T (setting [10]) stood at 100%.

Regarding `CC(=O)c1ccccc1` [Acetophenone], the Relative activity in the series on ADH T (setting [9]) worked out at 28%.

Consider `CC(=O)C(C)=O` [Diacetyl], for which the Relative activity with ADH T (setting [9]) came out at 154%.

In the case of `CCOC(=O)CC(=O)CCl` [Ethyl 4-chloroacetoacetate], the Relative activity in the series on ADH T (setting [10]) turned out to be 45%.

With `CCOC(=O)CC(C)=O` [Ethyl acetoacetate], in the series on ADH T (setting [9]), the Relative activity is listed as 22%.

Consider `O=C(CCl)c1ccccc1` [Phenacyl chloride], for which, in the series with ADH T (setting [10]), the Relative activity came out at 25%.

Regarding `CC(=O)c1ccc(Cl)cc1` [p-chloroacetophenone], the Relative activity with ADH T (setting [10]) stood at 17%.

With Monochloroacetone, the Relative activity in the series on ADH T worked out at 71%.

B1: ADH T: thermally stable, (S)-selective NADP-dependent alcohol dehydrogenase from Thermoanaerobacter species (SEQ ID NO: 2), recombinant (protein)
chain: MKGFAMLSIGKVGWIEVEKPNPGPFDAIVRPLAVAPCSSDIHTVFEGGLGELHNAVLGHEAVGEVVEVGSEVKDFKPGDKVVIPAITPDWRTLDVQRGYHQQSGGMLAGYKFTAQKPGVFAEYIYVNDADMNLAHLPDGISLEAAVMITDMMTTGFHGAELAEIELGATVAVLGIGPVGLMAVAGAKLRGAGRIIAVGSRPVCVDAAKYYGATDIVNYKNGPIDSQIMDLTKGKGVDAAIIAGGNVDIMATAVKIVKPGGTIANVNYFGEGDVLPVPRLEWGCGMAHKAIKGGLCPGGRLRMERLIDLVFYKRVDPSKLVTHVFQGFDNIEKALMLMKDKPKDLIKPVVILA
modifications: Thermoanaerobacter species
In the case of B1, in [1], the pH optimum worked out at 7.0. The Measured activity is given as 53 U/ml in [1] (pH 5.0); 134 U/ml in series [1] (pH 6.0); 192 U/ml in [1] (pH 7.0); 146 U/ml in series [1] (pH 8.0); 13 U/ml in series [1] (pH 9.0). Also, the Relative activity in [1] (pH 6.5) is 66%; in series [1] (pH 7.0), 100%; in [1] (pH 7.5), 74%. In addition, the “Activity Day 5” value in series [2] (0.0 M NaCl) is on record as 24 U/ml; in [2] (0.2 M NaCl), 101 U/ml; in series [2] (0.5 M NaCl) it was 113 U/ml; in series [2] (1.0 M NaCl), 115 U/ml. In addition, the “Activity Day 10” value in series [2] (0.0 M NaCl) is 6 U/ml; in series [2] (0.2 M NaCl), 7 U/ml; in [2] (0.5 M NaCl), 86 U/ml; in series [2] (1.0 M NaCl), 119 U/ml. Also, the “Activity Day 20” value in series [2] (0.0 M NaCl), in series [2] (0.2 M NaCl) and in series [2] (0.5 M NaCl) was 0 U/ml each time. Also, the “Activity Day 40” value in series [2] (0.0 M NaCl) was 0 U/ml; in series [2] (0.2 M NaCl), 0 U/ml; in series [2] (0.5 M NaCl) it was 0 U/ml; in [2] (1.0 M NaCl) it was 78 U/ml. Also, the “Activity Start” value in [2] (0.0 M NaCl), in series [2] (0.2 M NaCl), in series [2] (0.5 M NaCl) and in series [2] (1.0 M NaCl) was 105 U/ml in each case. Further, the “duration of high stability on storage” value in series [2] (storage at −20° C. with addition of glycerine, in particular 50%) is reported as “at least 3 months”. Also, the “effect of addition of zinc ions to the prepared enzyme” value in series [2] (zinc ions added to prepared enzyme) was “leads rapidly to its inactivation”. Further, the spec. activity amounted to 55.4 U/mg in series [3] and 52.7 U/mg in [5]. In addition, the rel. activity in [3] (setting [11]) worked out at 77%; in series [5] (setting [11]) it was 74%. The “activity with standard substrate” value in [4] worked out at 106 U/ml. Besides, the “activity remaining, of the starting value” in [6] is 75%. In addition, the figures for the Conversion to diol in series [7] (enzyme-coupled) and in [7] (substrate-coupled) were 82.4% and 10.6%, respectively. The “ee/de for the (S,S) enantiomer” value in series [7] (enzyme-coupled) and in [7] (substrate-coupled) was 100% in each case. Besides, the Conversion in series [8] (100 mM Tris-Cl pH 7.0, 20% isopropanol, 24 hours) was 85.3%; in series [8] (100 mM Tris-Cl pH 7.0, 20% isopropanol, 48 hours), 86.5%; in series [8] (100 mM Tris-Cl pH 7.0, 50% isopropanol, 24 hours), 93.8%; in series [8] (100 mM Tris-Cl pH 7.0, 50% isopropanol, 48 hours) it was 94.2%.
